The results in this text go back to patent publication US20200347143A1 (GLENMARK PHARMACEUTICALS S A, published 2020).

What is called Kd is a measure of binding affinity in units of concentration. The koff is the first-order rate constant of dissociation. By kon is commonly meant the rate constant with which the complex forms.

Where a chain is given by its changes, count along the chain named. Names and notes keep the numbering of the source.

For one assay, the target named is rat OX40-Fc (rat). Briefly: ELISA on coated rat OX40-Fc. As to the method: (§1) These constructs were expressed in HEK293-EBNA1 cells and purified using protein A. Then, human and rat OX40-Fc were tested in ELISA and Biacore to determine antibody cross-reactivity. For the ELISA, 96 well-microtiter plates (Costar USA, distributor VWR AG, Nyon, Switzerland) were coated with 100 μl of recombinant human or rat OX40-Fc at 2 μg/ml in PBS. Plates were incubated overnight at 4° C. and were then blocked with PBS 2% BSA (Bovine Serum Albumine, PAA Laboratories, Pasching, Austria) at room temperature (RT) for one hour. The blocking solution was removed and the purified antibodies were added at 10 μg/ml in PBS 2% BSA. The plates were incubated at RT for 1 hour, then washed 5 times with PBS 0.01% Tween-20 (Sigma-Aldrich Chemie GmbH, Buchs, Switzerland). […] Plates were incubated for 1 hour at RT, washed 5 times with PBS 0.01% Tween-20 and the TMB substrate (Bio-rad Laboratories AG, Reinach, Switzerland) was added to the plates and the reaction stopped after 5 minutes by adding H₂SO₄. Absorbance was then read at 450 nm by a microplate reader (Biotek, USA; distributor: WITTEC AG, Littau, Switzerland). Biacore experiments were specifically conducted with Hexa-hzG3V9 and Hexa-hz1D10v1 which are dAb-Fc fusion proteins. […] Binding of human and cyno OX40-Fc molecules was determined by successively injecting these proteins on the 4 flow-paths (flow-path 1 and 3 being used as references) at a concentration of 200 nM and a flow rate of 30 uL/min for 240 seconds. Regeneration between the two injections was done using 3M MgCl2, at 30 uL/min for 60 seconds. Using these two approaches, human/rat OX40 binding was assessed (table 16).
On the technique in general: ELISA stands for enzyme-linked immunosorbent assay.

In another assay the target is T1, human OX40-Fc (human).
T1 construct: also called recombinant human OX40-Fc; human OX40 (HHHH)
The experiment in a line: ELISA on coated human OX40-Fc, antibody 10 µg/ml. The method, then: as §1

Assay [1] addresses T2, human OX40 on cells (human, UniProt P43489 29-277).
T2 sequence (looked up): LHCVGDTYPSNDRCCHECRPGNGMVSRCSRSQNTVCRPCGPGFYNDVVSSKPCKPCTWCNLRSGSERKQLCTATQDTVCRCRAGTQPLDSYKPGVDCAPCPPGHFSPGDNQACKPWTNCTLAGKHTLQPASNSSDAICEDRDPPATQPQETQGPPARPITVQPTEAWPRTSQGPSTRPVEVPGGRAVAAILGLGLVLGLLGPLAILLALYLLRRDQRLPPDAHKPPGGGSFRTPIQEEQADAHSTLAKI
The experiment in a line: cell-based or functional assay.

For assay [2], the target named is recombinant CD40 molecule (R&D) (UniProt P25942 21-193). The experiment in a line: direct ELISA on coated recombinant CD40, detection streptavidin-HRP, absorbance 450 nm [panel CD40]. As to the method:
(§2) FIG. 13. A dose-response of various antibodies was incubated on various receptors, members of Tumor Necrosis Factor Receptor family, then detected with Streptavidin coupled with Horseradish Peroxidase enzyme. […] Each data point is the mean of duplicate values except for control curves that were performed in simplicate.
(§3) The experiment was conducted following the same protocol than previously described. […] These molecules were all coated at 2 μg/ml in PBS overnight at 4° C.

The target of assay [3] is T3, recombinant GITR molecule (R&D) (UniProt Q9Y5U5 26-161).
T3 sequence (looked up): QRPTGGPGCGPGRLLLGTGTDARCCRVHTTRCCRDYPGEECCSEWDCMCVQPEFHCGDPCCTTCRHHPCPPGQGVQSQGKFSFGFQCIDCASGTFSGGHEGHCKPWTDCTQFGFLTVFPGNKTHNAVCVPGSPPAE
The experiment in a line: direct ELISA on coated recombinant GITR, detection streptavidin-HRP, absorbance 450 nm [panel GITR]. As to the method:
as §2, §3

Assay [4] addresses T4, recombinant DR6 molecule (R&D) (UniProt O75509 42-349, limits assumed).
T4 sequence (looked up): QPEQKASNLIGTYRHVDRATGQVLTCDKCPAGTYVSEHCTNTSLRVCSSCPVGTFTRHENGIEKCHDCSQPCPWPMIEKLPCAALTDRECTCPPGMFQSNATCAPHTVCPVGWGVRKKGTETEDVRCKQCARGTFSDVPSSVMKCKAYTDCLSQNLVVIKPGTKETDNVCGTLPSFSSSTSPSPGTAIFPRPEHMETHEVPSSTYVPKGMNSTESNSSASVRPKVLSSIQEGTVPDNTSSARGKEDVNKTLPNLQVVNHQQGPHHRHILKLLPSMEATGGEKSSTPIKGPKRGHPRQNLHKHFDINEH
Briefly: direct ELISA on coated recombinant DR6, detection streptavidin-HRP, absorbance 450 nm [panel DR6]. The method, then:
as §2, §3

The target of assay [5] is T5, recombinant DR3 molecule (R&D) (UniProt Q93038 25-199, limits assumed).
T5 sequence (looked up): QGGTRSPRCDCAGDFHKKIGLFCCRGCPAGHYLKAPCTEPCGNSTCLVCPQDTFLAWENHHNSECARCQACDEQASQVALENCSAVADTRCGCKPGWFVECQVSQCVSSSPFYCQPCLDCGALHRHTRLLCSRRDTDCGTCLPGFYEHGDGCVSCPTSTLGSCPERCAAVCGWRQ
The experiment in a line: direct ELISA on coated recombinant DR3, detection streptavidin-HRP, absorbance 450 nm [panel DR3]. As to the method:
as §2, §3

The target in assay [6] is T2, human OX40 on cells. Briefly: flow cytometry on HPB-ALL cells, 10 µg/ml antibody. The method, then:
HPB-ALL cells (DSMZ, Braunschweig, Germany, Cat. No: ACC483) were used as a human OX40 positive cell line for FACS staining. HPB-ALL were maintained in RPMI 1640 supplemented with 10% FCS and 100 U/ml Penicillin and 100 μg/ml streptomycin. 4×10e5 HPB-ALL cells in FACS buffer (PBS supplemented with 1% BSA and 0.1% sodium azide) were incubated for 45 min on ice with the anti-OX40 antibody of interest kept at a concentration of 10 μg/ml An irrelevant human IgG1 was used as an isotype control; the cells were incubated with a 1/200 dilution of anti-Human Fc-PE (EBioscience, Vienna, Austria) for 45 min on ice. Cells were then washed again and resuspended in 200 μl FACS buffer. The relative mean fluorescence of each sample was measured on a FACSCalibur instrument (BD Biosciences, Allschwil, Switzerland).
A first set of 16 humanized antibodies of human gamma one isotype were prepared. These first humanized candidates were assessed for transient expression in HEK293E cells and binding to HB-ALL cell by flow cytometry (Table 7).
Background: In flow cytometry, cells or beads pass a laser one at a time.

Assay [7] addresses T6, recombinant human OX40-his protein (human, UniProt P43489 29-214).
T6 construct: Secreted via the native signal peptide, which lies within residues 1-214; also called Human OX40R-His; histidine tagged human OX40 receptor extracellular domain
T6 sequence: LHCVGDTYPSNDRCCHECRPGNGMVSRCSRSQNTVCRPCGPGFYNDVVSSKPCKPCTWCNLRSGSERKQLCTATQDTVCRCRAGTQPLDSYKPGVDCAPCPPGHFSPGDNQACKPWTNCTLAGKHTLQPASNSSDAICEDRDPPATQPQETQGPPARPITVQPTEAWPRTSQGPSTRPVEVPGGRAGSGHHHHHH
Briefly: SPR (BIAcore 2000), antibody captured on Protein A, OX40-his injected. The method, then: SPR analysis was used to measure the association and dissociation rate constants for the binding kinetics of the anti-OX40 antibodies. The binding kinetics were measured on a BIAcore 2000 (BIAcore-GE Healthcare Europe GmbH, Glattbrugg, Switzerland) at room temperature and analyzed with the BiaEvaluation software (v4.1, GE Healthcare Europe GmbH).
(§4) Measurements were performed on CM5 sensor chips (Biacore 2000, GE Healthcare Europe GmbH, Cat. No: BR-1000-14) individually coupled with Protein A (Sigma, Buchs, Switzerland, Cat. No: P7837) using a commercial amine coupling kit (GE Healthcare Europe GmbH, Cat. No: BR-1000-50). 200-600 RUs of humanized antibody were captured. Dilution series of OX40-his were injected at a flow rate of 10 μl/min in HBS-EP buffer (GE Healthcare Europe GmbH, Cat. No: BR1001-88). After each binding event, the surface was regenerated with 10 μl of glycine buffer pH 1.5. Experimental data were processed using a 1:1 Langmuir model with local Rmax. The dissociation time was about 7 min. Measurements were performed in duplicates or triplicates and included zero-concentration samples for referencing. Both Chit and residual values were used to evaluate the quality of a fit between the experimental data and individual binding models.
(Surface plasmon resonance follows binding to a sensor surface in real time, without labels.)

Assay [8] deals with T6, recombinant human OX40-his protein. The experiment in a line: SPR, antibody captured on Protein A, OX40-his injected. The method, then: as §4
Humanized antibody candidates were then assayed for their binding affinity by SPR and Fab thermal stability by DSC.

Chain of rat OX40-Fc (rat) (chain, as listed by the source limits assumed): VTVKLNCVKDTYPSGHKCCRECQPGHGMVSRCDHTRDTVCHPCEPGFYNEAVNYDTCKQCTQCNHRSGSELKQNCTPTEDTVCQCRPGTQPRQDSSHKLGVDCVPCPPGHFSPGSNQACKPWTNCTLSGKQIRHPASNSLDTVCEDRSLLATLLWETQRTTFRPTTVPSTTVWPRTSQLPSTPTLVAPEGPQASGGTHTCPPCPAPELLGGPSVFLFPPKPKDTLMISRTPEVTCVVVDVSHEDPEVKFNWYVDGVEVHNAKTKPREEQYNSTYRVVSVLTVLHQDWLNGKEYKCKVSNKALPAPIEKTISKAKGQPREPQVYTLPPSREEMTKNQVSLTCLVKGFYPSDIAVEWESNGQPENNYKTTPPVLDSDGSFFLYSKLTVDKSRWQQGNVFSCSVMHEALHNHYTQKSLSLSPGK
Chain of recombinant CD40 molecule (R&D) (P25942 21-193 limits assumed): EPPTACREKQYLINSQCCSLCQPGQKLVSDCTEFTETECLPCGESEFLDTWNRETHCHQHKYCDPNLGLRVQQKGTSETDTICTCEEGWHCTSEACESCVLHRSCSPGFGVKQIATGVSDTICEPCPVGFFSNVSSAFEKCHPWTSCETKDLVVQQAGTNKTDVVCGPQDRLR

B1: 9B12 IgG1 (antibody, V domains shown)
VH: QVQLQESGPGLVKPSQTLSLTCAVYGGSFSSGYWNWIRKHPGKGLEYIGYISYNGITYHNPSLKSRITINRDTSKNQYSLQLNSVTPEDTAVYYCARYKYDYDGGHAMDYWGQGTLVTVSS
VL: DIQMTQSPSSLSASVGDRVTITCRASQDISNYLNWYQQKPGKAPKLLIYYTSKLHSGVPSRFSGSGSGTDYTLTISSLQPEDFATYYCQQGSALPWTFGQGTKVEIKR
notes: also called OX40mab24
With B1, the binding result with rat OX40-Fc is “no binding (tested: 10 µg/ml)”. Besides, in the assay with human OX40-Fc, the binding result was “binds”. Also, in the assay with human OX40 on cells [1], the “% donor responder (>2), SEB assay, IL-2 release” value is 50% and the “Mean, normalized IL-2 release, SEB assay” value was 2.36.

B2: 1A7 IgG1 (antibody, V domains shown)
VH: EVQLVQSGAEVKKPGASVKVSCKASGYTFTDSYMSWVRQAPGQGLEWIGDMYPDNGDSSYNQKFRERVTITRDTSTSTAYLELSSLRSEDTAVYYCVLAPRWYFSVWGQGTLVTVSS
VL: B1 VL with K53R, H55R, Y71F, S92H, A93T, W96P
For the molecule B2, in the assay with human OX40-Fc, the binding result is “binds”.

B3: 7H11 IgG1 (Humanized 7H11-VH2 N58K-D54E with 7H11 VL1) (antibody, V domains shown)
VH: QVQLVQSGAEVKKPGASVKVSCKASGYTFTRYYMHWVRQAPGQGLEWMGWIYPGEGSTKYAQKFQGRVTMTRDTSISTAYMELSRLRSDDTAVYYCAREYGNYDYWGQGTLVTVSS
VL: DIVMTQSPDSLAVSLGERATINCKSSQSLLNSGNQKNYLAWYQQKPGQPPKLLIYGASTRESGVPDRFSGSGSGTDFTLTISSLQAEDVAVYYCQNDHSYPYTFGQGTKLEIKR
notes: also called 7H11_v8 IgG1
On to B3, for which the binding result (with rat OX40-Fc; in [2]; in assay [3]; in [4]; in assay [5]) was “no binding (tested: 10 µg/ml)” in each case.

B4: Humanized 7H11 VH2/VL1 IgG1 (antibody, V domains shown)
VH: B3 VH with E55D, K59N
VL: B3 VL
notes: human IgG1, kappa; also called Humanized VH2-VL1 IgG1
In turn, B4 returned an MFI with human OX40 on cells [6] of 120. Also, in [7], the Kd was 21 nM, the koff came to 0.0013 s⁻¹ and the association rate constant (kon) is 58500 M⁻¹ s⁻¹.

B5: Humanized 7H11 VH2 V37M/VL1 (antibody, human IgG1, kappa, V domains shown)
VH: B3 VH with V37M, E55D, K59N
VL: B3 VL
notes: human IgG1, kappa
For B5, the Kd in [8] was 2.87 nM.

B6: Humanized 7H11 VH1/VL1 IgG1 (antibody, V domains shown)
VH: B3 VH with E55D, A61S, M70I, I76A, R85S, D89E
VL: B3 VL
notes: human IgG1, kappa; also called Humanized VH1-VL1 IgG1
For B6, the MFI in the assay with human OX40 on cells [6] was determined as 120. Moreover, in assay [7], the Kd turned out to be 35 nM, the off-rate constant (koff) was 0.00058 s⁻¹ and the on-rate constant (kon) came out at 16700 M⁻¹ s⁻¹.

B7: Humanized 7H11 VH3/VL1 IgG1 (antibody, V domains shown)
VH: B3 VH with W50I, E55D, K59S, I76T, A79V, R85S, D89E
VL: B3 VL
notes: human IgG1, kappa; also called Humanized VH3-VL1 IgG1
B7 returned an MFI with human OX40 on cells [6] of 121. For the same molecule, in [7], the dissociation constant Kd came out at 80 nM, the koff was 0.0055 s⁻¹ and the association rate constant (kon) amounted to 62500 M⁻¹ s⁻¹.

B8: 106-222 IgG1 (antibody, V domains shown)
VH: QVQLVQSGSELKKPGASVKVSCKASGYTFTDYSMHWVRQAPGQGLKWMGWINTETGEPTYADDFKGRFVFSLDTSVSTAYLQISSLKAEDTAVYYCANPYYDYVSYYAMDYWGQGTTVTVSS
VL: DIQMTQSPSSLSASVGDRVTITCKASQDVSTAVAWYQQKPGKAPKLLIYSASYLYTGVPSRFSGSGSGTDFTFTISSLQPEDIATYYCQQHYSTPRTFGQGTKLEIKR
Consider B8, for which, in the assay with rat OX40-Fc, the binding result was “no binding (tested: 10 µg/ml)”. The binding result with human OX40-Fc is “binds”. Besides, in the assay with human OX40 on cells [1], the “% donor responder (>2), SEB assay, IL-2 release” value came to 6% and the “Mean, normalized IL-2 release, SEB assay” value came out at 0.86.
